Results from paper PMC5542067.
Where two headings read alike, the source gives them in different places.

Legend:
[1] = biological target: T1, CTCF ZF4-7 (human, UniProt P49711 349-465); assay: fluorescence polarization
T1 sequence: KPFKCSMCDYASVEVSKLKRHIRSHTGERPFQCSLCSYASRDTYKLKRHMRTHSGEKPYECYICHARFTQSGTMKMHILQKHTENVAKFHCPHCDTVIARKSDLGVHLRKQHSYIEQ

[2] = biological target: T1, CTCF ZF4-7; assay: fluorescence polarization; remark: listed apart in the source
[3] = biological target: T2, CTCF ZF4-8 (human, UniProt P49711 348-492); assay: fluorescence polarization
T2 sequence: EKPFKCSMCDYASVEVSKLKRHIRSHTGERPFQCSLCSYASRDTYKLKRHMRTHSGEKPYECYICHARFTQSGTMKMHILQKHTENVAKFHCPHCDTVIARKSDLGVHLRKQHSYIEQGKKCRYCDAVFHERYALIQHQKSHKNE

[4] = biological target: T3, CTCF ZF3-7 (human, UniProt P49711 321-465); assay: crystal structure
T3 sequence: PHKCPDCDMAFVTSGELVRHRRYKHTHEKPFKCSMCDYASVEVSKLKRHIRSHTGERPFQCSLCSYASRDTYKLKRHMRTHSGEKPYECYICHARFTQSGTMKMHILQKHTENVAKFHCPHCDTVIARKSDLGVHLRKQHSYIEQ

[5] = biological target: T2, CTCF ZF4-8; assay: fluorescence polarization; remark: listed apart in the source
[6] = biological target: T3, CTCF ZF3-7; assay: fluorescence polarization
[7] = biological target: T1, CTCF ZF4-7; assay: fluorescence polarization; remark: listed apart in the source
[8] = biological target: T3, CTCF ZF3-7; assay: fluorescence polarization; remark: listed apart in the source
[9] = biological target: T1, CTCF ZF4-7; assay: fluorescence polarization; remark: listed apart in the source
[10] = biological target: T1, CTCF ZF4-7; assay: fluorescence polarization; remark: listed apart in the source

B1: CORE 5mC12 (dsDNA)
DNA 1: AGGACCAGCAGGGGGCGCA
DNA 2: TGCGCCCCCTGCTGGTCCT
modifications: 5mC at nt 16 of top strand (motif position 12)
- binding signal [1]: 1.5 fold higher affinity than CORE

B2: CORE 5mC2 (dsDNA)
DNA 1: AGGACCAGCAGGGGGCGCA
DNA 2: TGCGCCCCCTGCTGGTCCT
modifications: 5mC at nt 6 of top strand (motif position 2)
- binding signal [2]: ~23 fold lower affinity than CORE

B3: control (dsDNA)
DNA 1: AATGGACGAGTCATAGGAGA
DNA 2: TTCTCCTATGACTCGTCCAT
- binding signal [3]: ~10 fold higher affinity than without ZF8 on control

B4: CORE crystal 17-mer (dsDNA)
DNA 1: GCCAGCAGGGGGCGCTA
DNA 2: TAGCGCCCCCTGCTGGC
- binding result [4]: binds

B5: CORE (dsDNA)
DNA 1: AGGACCAGCAGGGGGCGCA
DNA 2: TGCGCCCCCTGCTGGTCCT
- binding signal [5]: ~1 fold affinity vs ZF4-7 on CORE (similar)
- binding signal [6]: ~6 fold higher affinity than without ZF3
- binding signal [7]: 1 fold (reference)
- binding signal [8]: ~4 fold higher affinity than without ZF3

B6: H19 (dsDNA)
DNA 1: GTTGCCGCGTGGTGGCAG
DNA 2: CTGCCACCACGCGGCAAC
- binding signal [9]: ~6 fold lower affinity than CORE

B7: CORE A3G (dsDNA)
DNA 1: AGGACCGGCAGGGGGCGCA
DNA 2: TGCGCCCCCTGCCGGTCCT
- binding signal [10]: ~1 fold affinity vs CORE (indistinguishable)
